Tests used:
[1] = tested on: ER-α; experiment: mammalian two-hybrid assay of ER-α helix 1-LBD interaction; format: cell-based; details: HepG2 cells, G5E1B-Luc reporter
Source text: Shown are mammalian two-hybrid assays of Gal fusions containing helix 1 of ER-α with VP16 fusions of the ER LBD containing or lacking helix 1. HepG2 cells were cotransfected with G5E1B-Luc reporter, the appropriate combination of the expression vectors, and a ligand or vehicle. “E2” denotes estradiol; “4HT” denotes 4-hydroxy tamoxifen; and “ICI” denotes ICI-172,780.
HepG2 cells were maintained in Dulbecco's modified Eagle medium supplemented with 10% fetal calf serum. For transfection the cells were plated the day before into 24-well dishes at density 10^5 cells/well in DMEM supplemented with 10% charcoal-stripped serum. Transfections were performed by the calcium phosphate co-precipitation method. […] The amount of DNA was adjusted to 500 ng total per well with pBluescript vector.
The cells were washed with PBS the next morning and fresh media containing the appropriate ligands was added. The cells were harvested 24 hours later and assayed for luciferase (Molecular Probes) and β-Galactosidase activity (Tropix) on an MLX luminometer. All experiments were performed at least twice in duplicate.

[2] = molecular target: T1, GST-TR hinge fusion / TR LBD (Homo sapiens, UniProt P10828); experiment: GST pulldown assay of GST-TR204-260 with in vitro translated TR236-461; format: binding; details: peptide 10 and 100 μM
T1 construct: GST pulldown assay of GST-TR204-260 with in vitro translated TR236-461; made in house; host or cells: The GST fusion was made in E. coli BL21; The LBD fragment was translated in vitro
T1 sequence (P10828 236-461): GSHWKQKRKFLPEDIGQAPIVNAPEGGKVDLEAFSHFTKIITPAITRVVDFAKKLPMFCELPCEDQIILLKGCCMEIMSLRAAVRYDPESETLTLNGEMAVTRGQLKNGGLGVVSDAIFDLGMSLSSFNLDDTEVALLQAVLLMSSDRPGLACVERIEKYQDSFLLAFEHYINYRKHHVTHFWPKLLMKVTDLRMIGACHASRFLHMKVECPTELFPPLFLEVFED
T1 sequence (P10828 204-260 partner limits assumed): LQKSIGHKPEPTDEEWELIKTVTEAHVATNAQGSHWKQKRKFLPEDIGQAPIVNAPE
Source text: FIGS. 5A and 5B illustrate that N-CoR enhances the hinge-LBD interaction in the absence of ligand. In FIG. 5A, HepG2 cells were cotransfected with Gal4-hinge and VP16-LBD fusions of TR (left panel), RAR (middle panel), or RXR (right panel) in the presence or absence of Gal-RIP13ΔN4 construct and treated with the corresponding ligands or vehicle alone. […] Wt and mutant peptides of N-CoR IDI (top and bottom panels, respectively) were included where indicated at concentrations of 10 (+) and 100 (++) μM.
The appropriate GST fusion constructs were induced with […] and coupled to glutathione beads (Sepharose, Pharmacia). Interactions were performed overnight at 4° C. in buffer containing 20 mM Hepes pH 7.6, 100 mM NaCl, 20% glycerol, 2 mg/ml BSA, 1 mM DTT, and various protease inhibitors. The beads were subsequently washed twice with the interaction buffer containing 0.05% Triton X-100 and once with 50 mM Tris-HCl pH 8. Ligands or peptides were included in the washes where appropriate. The bound proteins were eluted with 15 mM glutathione (Sigma) for 15 minutes at 37° C. and analyzed by SDS-PAGE and fluorography (Amplify, Amersham). The sequence of the N-CoR RID peptide was […].

[3] = molecular target: T2, TR 204-461 (Homo sapiens, UniProt P10828); experiment: protease digestion assay (trypsin) of TR LBD; format: biochemical; details: in the absence of ligand; 1 mM peptide, trypsin 7 minutes at room temperature
T2 construct: Flag (N); made in house; host or cells: in vitro translation
T2 sequence (P10828 204-461): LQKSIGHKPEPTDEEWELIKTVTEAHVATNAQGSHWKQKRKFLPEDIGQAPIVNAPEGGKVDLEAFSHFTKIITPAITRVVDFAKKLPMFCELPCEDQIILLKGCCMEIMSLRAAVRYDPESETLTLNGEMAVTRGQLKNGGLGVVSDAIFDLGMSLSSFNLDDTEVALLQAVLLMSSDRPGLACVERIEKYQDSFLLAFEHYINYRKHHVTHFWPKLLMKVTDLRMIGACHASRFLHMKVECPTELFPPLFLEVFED
Experimental: The mixture was digested with trypsin for 7 minutes at room temperature and analyzed by SDS-PAGE.
Subsequently, wild-type or mutated N-CoR peptides were added to final concentrations of 1 mM, and the reaction mixtures was further incubated for 30 minutes on ice. BSA was added to the reactions with no peptides to supplement for equal protein concentration in all the reaction mixtures. Finally, […] of trypsin was added to the indicated tubes, and the protein digestion was performed at room temperature for 7 minutes. The reactions were stopped with the addition of SDS-sample buffer and boiling. The samples were run on a 15% SDS-gel that was then dried and exposed to film for 1 hour.

interaction between a GST-TR hinge fusion and the TR LBD ([2]; in the absence of ligand) | interaction between a GST-TR hinge fusion and the TR LBD ([2]; in the presence of ligand) | stabilization of TR LBD fragment against trypsin digestion [3] | Substance | hinge-LBD interaction of ER-α [1] | new protease resistant species with a lower molecular weight [3]
 |  |  | 4-hydroxy tamoxifen | stronger effect | 
strongly stimulated | did not affect | some apparent stabilization | ASNLGEDIIKALMGSFDD [wild type NCoR RID I peptide] |  | presence of a new protease resistant species

Reference: US20020015966A1, “Effector-specific protein assembly and uses thereof” (priority 2000, published 2002)
